Measurements from the nanobody polyreactivity screen of Harvey et al. (2022).

Assay: yeast display, Sf9 membrane polyspecificity reagent, FACS + sequencing; frameworks hold sequencing errors
Summary of the method: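 Nanobodies came from a synthetic yeast display library in Saccharomyces cerevisiae BJ5465, induced with galactose for 36–48 hours and stained for 1 hour at 4 °C with 10% biotinylated, detergent-solubilized Sf9 membrane reagent. Cells were enriched on streptavidin microbeads and then FACS-sorted, with low and high (top ~1%) gates set on anti-HA fluorescence for expression and streptavidin fluorescence for reagent binding. Each polyreactivity label reflects the gate a clone came from. Genes were amplified by colony PCR, sequenced by MiSeq 2 × 250 and filtered by CDR length.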

| Sequence | polyreactivity (PSR sort gate) |
| --- | --- |
| QVQLVESGGGLVQAGGSLRLTCAASGRTFYINAMGWYRQAPGKERELVAAISSGGSTNYADSVKGRFTISRDNAKNTVSLQMNSLKPEDTAVYYCNARLRSFTLSDAEYEYWGQGTQVTVSS | low polyreactivity |
| QVQLVESGGGLVQAGGSLRLTCAASGRTLRLYPMGWYRQAPGKERELVAAISRSGSSTYADSVKGRFTISRDNAKNTVYLQMYSLKPEDTAVYYCNAYQPRYGYWGQGTQVTVSS | high polyreactivity |
| QVQLVESGGGLVQAGGSLRLTCAASGSIFCAYTMGWSRQAPGKECDLVAAISASGGSTYYADSVKGRFTISRDNAKNTVYLQMNSLNPDDTAVYYCAAVYDLGYYGPIWAIVLDDYWGQGTQVTVSS | low polyreactivity |
| QVQLVESGGGLVQAGGSLRLTCAASGSIFDFYAMGRYRQAPGQERELVAAISGSGGSTYYADSVKGRFTISRDNGKNTVYFQMDSLKPEDTAVYYCSYYYWGQGTQVNVSS | low polyreactivity |
| QVQLVESGGGLVQAGGSLRLTCAASGSIFFDYGMGWYRQAPGKERELVATITRGTGSTYYADSVKGRFTISRDNAKNTVSLQMNSLKPEDTAVYYCAESYSYYNSYDYWGQGTQVTVSS | high polyreactivity |
| QVQLVESGGGLVQAGGSLRLTCAASGSIFGNAMGWYREAPGKEREIVAAISSSGSSTYYADSVKGRFTMSRDTAKNTVYLQMNSLKPADTAVYYCNKGSRRYHGYDYWGQGTQVTVSS | high polyreactivity |
| QVQLVESGGGLVQAGGSLRLTCAASGSIFKTNAMGWYRQAPGKERELVAAIRASGGSTYYADSVKGRFTISRDNAKNTVYLQMNSLKPEDTAVYYCAARYWFKYYWGQGTQVTVSS | low polyreactivity |
| QVQLVESGGGLVQAGGSLRLTCAASGSIFSYYAMGWYRQAPGKERELVADISFTGDSTFYADSVKGRFTISRDNAKNTVYLQMNSLKPEDTADYYCAKDEIMAVYFEYDYWGQGTQVTVSS | low polyreactivity |
| QVQLVESGGGLVQAGGSLRLTCAASGSIFWGYALGWYRQAPGKERELVATIRNRGGSTYYADSVKGRFTISRDNAKNTVYLQMNSLKPEDTAVYYCAADEGGFWWTYPYDSWGQGTQVTVSS | low polyreactivity |
| QVQLVESGGGLVQAGGSLRLTCAASGSIFYAYAMGWYRQAPGKERELVAAISGRGGSTYYADSVTGRFTISRDNAKKTVYFQMNSLKPEDTAVYYCAAERRTFYGLGVHYWGQVTQVTVSS | high polyreactivity |
| QVQLVESGGGLVQAGGSLRLTCAASGSIFYRNAMGLYRQAPGKEMELVADISWSGSSTYADSVKGLFTISRDNAKYTVYLHMNTLKPEDTAVYYCAAGGHYYSSPGYNYWGQGTQVTVSS | high polyreactivity |
| QVQLVESGGGLVQAGGSLRLTCAASGSIFYYNAKGWYRQAPAKERELVATITQTGGSTYYADSVKARFTISRDNAKNTVYLQMNSLKPEDTAVYYCASDYFPYEYDYWGQGTQVTVSS | low polyreactivity |
| QVQLVESGGGLVQAGGSLRLTCAASGSIVQVYPMVWYRQEPGKEREFVAAISYSGGGTYYADSVKGRFTISRDIAKNTVYLQMNILKPEDTAVYYCAADVSAWEEDIWRQGTQVTVSS | low polyreactivity |
| QVQLVESGGGLVQAGGSLRLTCAASGSIYGVYAMGWSIQGPGKEREWVAVISWNGGRTYYADSVKGRFTISRDNAKNTVYLQMNSLKPEDTAVYYCAADTSYRYRDYHVDYWGQGTQVTVSS | high polyreactivity |
| QVQLVESGGGLVQAGGSLRLTCAASGSTFGWYTKGWYRQAPGKERELVAAISSGGSTYYADSVKGRFTISRDNAKNTVYLQMNSLKPEDTAVYYCNAKVPSSYSYYSYYEYDYWGQGTQVTVSS | low polyreactivity |
| QVQLVESGGGLVQAGGSLRLTCAASGSTFSKNGMGWYRQAPGKEREFVAAISGSGGSTYYADSVRGRFTISRDNAKNTVYLQMNSLKPEDTAVYYCAARRVWYYISAYGYWGQGTQVTVSS | high polyreactivity |

| Sequence | polyreactivity (PSR sort gate) |
| --- | --- |
| QVQLVESGGGLVQAGGSLRLTCAASGSTFSPYAMGWYRQATGKERELVAAISASGGGTYYADSVKGRFTISRDYAKNTVYLQMNRLIPVDTAVYYCARDYGWDISKGRYGYWGQGTQVTVSS | low polyreactivity |
| QVQLVESGGGLVQAGGSLRLTCAASGSTFTRYAMGWYRQAPGKERELVATIIFSGDRTYYADSVKGRFTISRDNAKNTVYLEMNSLKPEDTAVSYCNKYRYQWPYRRFDYWGQGTQVTVSS | high polyreactivity |
| QVQLVESGGGLVQAGGSLRLTCAASGSTFVRYAMGWYRQAPGKERELVATIRRVGSTNYADSVKGRFTISRDNAKNTVYLQMNSLKPEDTEVYYCAARSLRYGRGMYYWGQGTQVTVSS | high polyreactivity |
| QVQLVESGGGLVQAGGSLRLTCAASGSTFVRYVMGWYRQAPGKERELVAAISRRGGSTYYADSVKGRFTISRDNANNTVYLQMNSLKPEDTAVYYCARTVGYRTLLESDSWGQGTQVTVSS | high polyreactivity |
| QVQLVESGGGLVQAGGSLRLTCAASGSTFYSNAMGWYRQAPGKERYLVAAITSRGDRTYYADSVKGRFTISRDNAKNTVYFQLNSLNPEDTAVYSCAAEQSWQGYAYYYWGQGTQVTVSS | high polyreactivity |
| QVQLVESGGGLVQAGGSLRLTCAASGSTFYSYTMGWYRQAPGKERELVAVISSSGGRTYYADSVKGRFTISRDNAKNTVYFQMNSLKPEDTAVYYCAASQRGYFDYRLWSFRSDSWGQGTQVTVSS | high polyreactivity |
| QVQLVESGGGLVQAGGSLRLTCAASGSTSGQNAMGRYRQAPGNERELVAAISSSAGSTYADSVKGRFTISRDNAKNTVYLQMNSLKPEDTAVYYCNVPYYYTRGSYGYWGQGTQVTVSS | low polyreactivity |
| QVQLVESGGGLVQAGGSLRLTCAASGSTYYSYAMGWYRQATGKERELVAAITSRGDRTYYADSVQGRFTISRDNAKNTVYLQMNSLKPEDTAVYYCAAEQSWQGYAYYYCGQGTQVTVSS | high polyreactivity |
| QVQLVESGGGLVQAGGSLRLTCAASGYIFSTYAMGSYRQAPGKERELVASISENGGSTYYADSVKGRFTISRDNAKNTVYLQMNSLKPEDTAVDYCNADAYVDVDDGDYWGEGTQVTVSS | low polyreactivity |
| QVQLVESGGGLVQAGGSLRLTCAASGYIFYRYALGWYRKAPGKERELVAAINSGGSTYYADSVKGRFTISRDNAKNTVYLQMNSLKPEDTAVYYCNVLGWWHVWVYDYWGQGTQVTVSS | high polyreactivity |
| QVQLVESGGGLVQAGGSLRLTCAASGYIIDWNTMVCYRHEPGKERELVAAITESSGSTYYADSVKGRFTISRDNAKNTVYLQMNSLKPEDTAVYYCAAELDVFVSICSRFHFEYWGQGTQVTVSS | low polyreactivity |
| QVQLVESGGGLVQAGGSLRLTCAASGYKFKSNVMGWYRQAPGKERELVAAISWSGGRTYYADSLKGRFTISRDNAKNTVYLQMNSLKPEDTAVYYCAAVGRQSNYYVDYDYWGQGTQVTVSS | high polyreactivity |
| QVQLVESGGGLVQAGGSLRLTCAASGYTFRAYVMGWYRQAPGKERELVAGITRRGGTTYYADSVKGRFTISRYNAKNTVYLQMNSLKPEDTAVYYCNAVYRSGSIPYDSWGQGTQVTVSS | high polyreactivity |
| QVQLVESGGGLVQAGGSLRLTCAASGYTFVLNALGWYRQAPGKEREFVAAITWSGGSTYYADSVKGRFTISRDNAKNTVYLQMNSLKAEDTAVYYCAADPDSGQVPFDYWGQGTQVTVSS | low polyreactivity |
| QVQLVESGGGLVQAGGSLRLTCAASGYTFYPYAMGWYRQAPGKERELVAAISWSGGSTYYADSVKGRFTISRDNAKNTVYLQMNSLKPEDTAVYYCNADSGWFGYDYWGKGTQVTVSS | low polyreactivity |
| QVQLVESGGGLVQAGGSLRLTCAASVSIFSVYARGWYRQAPGKERELVADINIGGASTYYADSVKGRFTISRDNAKNTVFLQMNSVIPEDTAVYSCAKEYYEGYFPTFDYDYWGQGTQVNVSS | low polyreactivity |
